Publication PMC13672995, “NCR13 peptide protects soybean against Cercospora sojina using multi-faceted modes of action and additive interaction with chemical fungicides” (Journal of Experimental Botany, 2025)
Where no end group is shown, it is not given here.

Assays:
[1] = Peroxidase assay (TMB substrate); format: biochemical; details: heme 5 µM, peptide 5 µM, absorption at 370 nm and 652 nm
Protocol: A Pierce TMB substrate kit (Thermo Scientific) was used to measure the peroxidase activity of heme. In a transparent 96-well plate, 50 µl of TMB substrate and 50 µl of […] were added followed by addition of heme (5 µM) or peptides plus heme (5 µM each). The reaction progression was measured in the Tecan plate reader, by recording UV-vis absorption values at 370 nm and 652 nm for every minute up to 1 h.

[2] = tested on: soybean cv. Blackhawk plants; details: 48 µM spray
Protocol: To test the potential phytotoxicity of NCR13_PFV1 spray on soybean plants, 48 µM NCR13_PFV1 or water was first sprayed on 4-week-old soybean cv. Blackhawk plants (2 ml per plant) followed by biweekly sprays at 5 ml per plant until plants were 10 weeks old. When plants reached 12 weeks, photographs were taken for phenotypic analysis and the plants were allowed to mature. Soybean pods were harvested when the plants were all dry and mature, and the number of pods, 100 seed weight, and total seed weight were determined. At least four plants per treatment were tested.

[3] = tested on: C. sojina Cs350 (fungicide resistant); assay: Peptide-fungicide checkerboard assay; format: cell-based, Cercospora sojina; details: pair azoxystrobin / NCR13_PFV1; Cs350; 4 d; SHAM 60 µg ml–1; microscopy
Protocol: Synergy between NCR13_PFV1 and the widely used QoI foliar fungicides, azoxystrobin (Sigma-Aldrich, Cat No: 31697), trifloxystrobin (Sigma-Aldrich, Cat No: 46447), and pyraclostrobin (Sigma-Aldrich, Cat No: 33696), were evaluated using checkerboard assays. This assay was performed in a 96-well plate and the preparation of conidial suspension, peptide dilutions, and fungicide dilutions were similar to the in vitro antifungal activity assay described above. The presence of an alternative respiration pathway allows some fungi including C. sojina to germinate even in the presence of a high dose of QoI fungicides in vitro ([Ziogas et al., 1997]; [Zhang et al., 2012]). Therefore, to prevent alternative respiration in C. sojina, salicylhydroxamic acid (SHAM) was added in each reaction at the final concentration of 60 µg ml^–1 ([Zhang et al., 2012]). The conidia, peptide, fungicide, and SHAM were added in a 96-well plate at the v/v ratio of 4:1:1:2 (50 µl:12.5 µl:12.5 µl:25 µl) in the final reaction volume of 100 µl, and the plate was incubated at room temperature for 96 h (4 d). After 96 h, MIC values of the peptide–fungicide combination, peptide alone, and fungicide alone were calculated based on microscopy as well as the resazurin cell viability assay. The fractional inhibitory concentration (FIC) index was calculated using the formula FIC = (MICA+B/MICA) + (MICB+A/MICB), where MICA and MICB are the MIC for peptide (A) alone and fungicide (B) alone, respectively, MICA+B is the MIC for peptide in combination with fungicide (A+B), and MICB+A is the MIC for fungicide in combination with peptide (B+A). The FIC index was interpreted as: synergistic, ≤0.5; additive, >0.5–1.0; indifferent, >1 to <4.0; or antagonistic, ≥4.0.

## TKPCQSDKDCKKFACRKPKVPKCINGFCKCVR (disulfide (positions not given here)) [NCR13_PFV1, chickpea nodule-specific cysteine-rich 32 amino acid peptide, disulfide cross-linking variant 1, expressed in Pichia pastoris]
[1]
  peroxidase activity of heme and FeSO4 in the presence of peptide: not reduced or stopped
[2]; bi-weekly from the fourth to the 10th week, at least four plants
  morphology of sprayed plants (growth rate, height, leaf color) compared with water: No morphological difference
[2]; at maturity, Student’s t-test
  number of pods, 100 seed weight, total seed yield compared with water: no significant differences
[3]
  Combination MIC: 0.75 µM
